Results published in patent publication US20260193348A1 (ANTENGENE BIOLOGICS, published 2026).

Assays:
[1] = target: T1, GPRC5D (G-protein coupled receptor family C group 5 member D), human, on multiple myeloma cell lines (human, UniProt Q9NZD1 1-345); assay: FACS, MM.1S cells
T1 construct: whole, on cells; Target as carried by MM.1S, MOLP-8, L363 and RPMI8226 cells
Method: (§1) The binding affinities of the generated humanized Fab-scFv-Fab bispecific antibodies were determined by FACS analysis. […] (a) Jurkat cells were washed by Staining Buffer (PBS+1% BSA) in round bottom 96-well plate. [0833] (b) Antibody dilutions and cells were added to each well, incubated at 4 degrees for 1 hour. [0834] (c) Cells were spined down at 300 g for 3 minutes, and the supernatants were discarded. [0835] (d) Cells were washed with Staining Buffer. […] (e) Step (d) was repeated and the cells were incubated for 0.5 hours at 4 degrees with secondary antibody in Staining Buffer. [0837] (f) After incubation, step (d)-(e) were repeated. […] (g) Staining Buffer was added and fluorescence signals were recorded by flow cytometry.
(§2) The binding affinities of the generated humanized Fab-scFv-Fab bispecific antibodies to different multiple myeloma cell lines were evaluated by FACS analysis. The protocol for FACS analysis is identical to that described in Example 3.2, except that different cells were used in this example, i.e., multiple myeloma cell lines (MM.1S, […], L363 and RPMI 8226) were used in this example.

[2] = target: T1, GPRC5D (G-protein coupled receptor …); assay: FACS, MOLP-8 cells
Method: as §1, §2

[3] = target: T1, GPRC5D (G-protein coupled receptor …); assay: cell-based or functional assay
[4] = target: T1, GPRC5D (G-protein coupled receptor …); assay: cell-based or functional assay; remark: listed apart in the source
[5] = target: T2, CD3 (Cluster of Differentiation 3 protein), human, on T cells / Jurkat cells (human, UniProt P07766 23-207; P04234 22-171; P09693 23-182); assay: FACS, Jurkat cells, antibody at 50 µg/ml
T2 construct: whole, on cells; part of the TCR-CD3 complex; also called human CD3
T2 sequence (P07766 23-207, chain 1 of 3): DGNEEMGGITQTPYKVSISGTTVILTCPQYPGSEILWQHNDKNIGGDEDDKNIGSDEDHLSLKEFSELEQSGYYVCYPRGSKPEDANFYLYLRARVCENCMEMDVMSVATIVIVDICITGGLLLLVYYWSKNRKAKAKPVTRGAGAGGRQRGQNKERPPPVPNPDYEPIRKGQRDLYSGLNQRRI
T2 sequence (P04234 22-171, chain 2 of 3): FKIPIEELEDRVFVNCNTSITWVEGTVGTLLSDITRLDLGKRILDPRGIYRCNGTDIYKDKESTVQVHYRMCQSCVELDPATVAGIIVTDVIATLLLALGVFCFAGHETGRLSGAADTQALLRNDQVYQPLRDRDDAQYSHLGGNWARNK
T2 sequence (P09693 23-182, chain 3 of 3): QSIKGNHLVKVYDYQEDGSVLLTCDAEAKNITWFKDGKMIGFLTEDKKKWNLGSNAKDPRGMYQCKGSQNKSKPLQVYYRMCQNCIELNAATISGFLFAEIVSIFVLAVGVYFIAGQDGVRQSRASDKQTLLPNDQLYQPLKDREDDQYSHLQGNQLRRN
Method: as §1

T1 sequence (Q9NZD1 whole entry): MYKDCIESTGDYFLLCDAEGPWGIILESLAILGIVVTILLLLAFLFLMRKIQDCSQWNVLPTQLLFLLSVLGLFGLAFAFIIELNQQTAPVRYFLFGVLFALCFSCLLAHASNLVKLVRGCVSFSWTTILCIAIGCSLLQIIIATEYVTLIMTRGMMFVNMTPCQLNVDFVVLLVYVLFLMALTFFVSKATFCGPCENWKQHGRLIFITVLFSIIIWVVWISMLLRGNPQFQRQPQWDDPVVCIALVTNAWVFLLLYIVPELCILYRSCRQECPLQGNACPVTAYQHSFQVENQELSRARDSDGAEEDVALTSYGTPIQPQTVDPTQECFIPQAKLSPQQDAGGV

Binder	EC50 [1] [nM]	Top (MFI) [1] [MFI]	EC50 [2] [nM]	Top (MFI) [2] [MFI]	IC50 (nM), T-Cell Dependent Cytotoxicity, MM.1S [3] [nM]	IC50 (nM), T-Cell Dependent Cytotoxicity, MOLP-8 [3] [nM]	IC50 (nM), T-Cell Dependent Cytotoxicity, RPMI8226 [3] [nM]	Top (%), T-Cell Dependent Cytotoxicity, MM.1S [3] [%]	Top (%), T-Cell Dependent Cytotoxicity, MOLP-8 [3] [%]	Top (%), T-Cell Dependent Cytotoxicity, RPMI8226 [3] [%]	EC50 (nM), luciferase assay, L363 [4] [nM]	EC50 (nM), luciferase assay, MM.1S [4] [nM]	EC50 (nM), luciferase assay, MOLP-8 [4] [nM]	Top (RLU), luciferase assay, L363 [4] [RLU]	Top (RLU), luciferase assay, MM.1S [4] [RLU]	Top (RLU), luciferase assay, MOLP-8 [4] [RLU]	MFI (50 µg/ml) [5] [MFI]	EC50 (nM), luciferase assay, RPMI8226 [4] [nM]	Top (RLU), luciferase assay, RPMI8226 [4] [RLU]
Bis-40E9-L2H3-D105R.H (bispecific antibody, Fab-scFv-Fab (2+1), LALA) heavy 1: not shown heavy 2: EVQLVQSGAEVKKPGASVKVSCKASGYTFTSYVIHWVRQAPGQGLEWMGYFNPYNDGTKYNEEFKGRVTLTSDKSTSTAYMELRSLRSDDTAVYYCARGGVRRYFDVWGQGTTVTVSSASTKGPSVFPLAPSSKSTSGGTAALGCLVKDYFPEPVTVSWNSGALTSGVHTFPAVLQSSGLYSLSSVVTVPSSSLGTQTYICNVNHKPSNTKVDKKVEPKSCGGGGSGGGGSEVQLVQSGAEVKKPGSSVKVSCKASGYTFSSYVIHWVRQAPGQCLEWMGYINPYNDVIKYNEKFKGRVTLTSDKSTSTAYMELSSLRSEDTAVYYCARDSYYSYRGFAYWGQGTLVTVSSGGGGSGGGGSGGGGSGGGGSEIVLTQSPDFQSVTPKEKVTITCSASSSVSYMHWYQQKPDQSPKRLIYDTSKLASGVPSRFSGSGSGTDFTLTINSLEAEDAATYYCQQWSSNPPTFGCGTKVEIKGGGGSGGGGSDKTHTCPPCPAPEAAGGPSVFLFPPKPKDTLMISRTPEVTCVVVDVSHEDPEVKFNWYVDGVEVHNAKTKPREEQYNSTYRVVSVLTVLHQDWLNGKEYKCKVSNKALPAPIEKTISKAKGQPREPQVCTLPPSREEMTKNQVSLSCAVKGFYPSDIAVEWESNGQPENNYKTTPPVLDSDGSFFLVSKLTVDKSRWQQGNVFSCSVMHEALHNHYTQKSLSLSPGK light: DIQMTQSPSSLSASVGDRVTITCRASQDIGSNLNWLQQKPGKAIKRLIYATFGLDSGVPSRFSGSRSGTDFTLTISSLQPEDFATYYCQQYASFPYTFGGGTKVEIKRTVAAPSVFIFPPSDEQLKSGTASVVCLLNNFYPREAKVQWKVDNALQSGNSQESVTEQDSKDSTYSLSSTLTLSKADYEKHKVYACEVTHQGLSSPVTKSFNRGEC	6.16	1070	0.21	1090	0.00579	0.00463	0.0366	75.7	70.1	12.4	0.0397	0.423	0.0423	942	5240	1080	247		
Bis-40E9-L2H3-D99E.H (bispecific antibody, Fab-scFv-Fab (2+1), LALA; not shown: CH1; CL; CH2-CH3 with L234A, L235A; heavy chain constant region with L234A, L235A) heavy: EVQLVQSGAEVKKPGASVKVSCKASGYTFTSYVIHWVRQAPGQGLEWMGYFNPYNDGTKYNEEFKGRVTLTSDKSTSTAYMELRSLRSDDTAVYYCARGGVRRYFDVWGQGTTVTVSS heavy (part 1 of 2): EVQLVQSGAEVKKPGASVKVSCKASGYTFTSYVIHWVRQAPGQGLEWMGYFNPYNDGTKYNEEFKGRVTLTSDKSTSTAYMELRSLRSDDTAVYYCARGGVRRYFDVWGQGTTVTVSS heavy (part 2 of 2): GGGGSGGGGSEVQLVQSGAEVKKPGSSVKVSCKASGYTFSSYVIHWVRQAPGQCLEWMGYINPYNDVIKYNEKFKGRVTLTSDKSTSTAYMELSSLRSEDTAVYYCARESYYSYDGFAYWGQGTLVTVSSGGGGSGGGGSGGGGSGGGGSEIVLTQSPDFQSVTPKEKVTITCSASSSVSYMHWYQQKPDQSPKRLIYDTSKLASGVPSRFSGSGSGTDFTLTINSLEAEDAATYYCQQWSSNPPTFGCGTKVEIKGGGGSGGGGS light: DIQMTQSPSSLSASVGDRVTITCRASQDIGSNLNWLQQKPGKAIKRLIYATFGLDSGVPSRFSGSRSGTDFTLTISSLQPEDFATYYCQQYASFPYTFGGGTKVEIK					0.0244	0.00776	0.406	57.2	68.7	13.4	0.19	0.0719	0.906	584	1720	118	128	0.878	113
Bis-40E9-L2H3-G106A.H (bispecific antibody, Fab-scFv-Fab (2+1), LALA; not shown: CH1; CL; CH2-CH3 with L234A, L235A; heavy chain constant region with L234A, L235A) heavy: EVQLVQSGAEVKKPGASVKVSCKASGYTFTSYVIHWVRQAPGQGLEWMGYFNPYNDGTKYNEEFKGRVTLTSDKSTSTAYMELRSLRSDDTAVYYCARGGVRRYFDVWGQGTTVTVSS heavy (part 1 of 2): EVQLVQSGAEVKKPGASVKVSCKASGYTFTSYVIHWVRQAPGQGLEWMGYFNPYNDGTKYNEEFKGRVTLTSDKSTSTAYMELRSLRSDDTAVYYCARGGVRRYFDVWGQGTTVTVSS heavy (part 2 of 2): GGGGSGGGGSEVQLVQSGAEVKKPGSSVKVSCKASGYTFSSYVIHWVRQAPGQCLEWMGYINPYNDVIKYNEKFKGRVTLTSDKSTSTAYMELSSLRSEDTAVYYCARDSYYSYDAFAYWGQGTLVTVSSGGGGSGGGGSGGGGSGGGGSEIVLTQSPDFQSVTPKEKVTITCSASSSVSYMHWYQQKPDQSPKRLIYDTSKLASGVPSRFSGSGSGTDFTLTINSLEAEDAATYYCQQWSSNPPTFGCGTKVEIKGGGGSGGGGS light: DIQMTQSPSSLSASVGDRVTITCRASQDIGSNLNWLQQKPGKAIKRLIYATFGLDSGVPSRFSGSRSGTDFTLTISSLQPEDFATYYCQQYASFPYTFGGGTKVEIK					0.057	0.0068	4.04	67.4	54.3	5.69	0.187	0.268	0.116	277	2910	262	114	1.58	101
Bis-40E9-L2H4 (bispecific antibody, Fab-scFv-Fab (2+1), LALA; not shown: CH1; CL; CH2-CH3 with L234A, L235A; heavy chain constant region with L234A, L235A) heavy: EVQLVQSGAEVKKPGASVKVSCKASGYTFTSYVIHWVRQAPGQGLEWMGYFNPYNDGTKYNEEFKGRVTLTSDKSTSTAYMELRSLRSDDTAVYYCARGGVRRYFDVWGQGTTVTVSS heavy (part 1 of 2): EVQLVQSGAEVKKPGASVKVSCKASGYTFTSYVIHWVRQAPGQGLEWMGYFNPYNDGTKYNEEFKGRVTLTSDKSTSTAYMELRSLRSDDTAVYYCARGGVRRYFDVWGQGTTVTVSS heavy (part 2 of 2): GGGGSGGGGSEVQLVQSGAEVKKPGSSVKVSCKASGYTFSSYVIHWVRQAPGQCLEWIGYINPYNDVIKYNEKFKGRATLTSDKSTSTAYMELSSLRSEDTAVYYCARDSYYSYDGFAYWGQGTLVTVSSGGGGSGGGGSGGGGSGGGGSEIVLTQSPDFQSVTPKEKVTITCSASSSVSYMHWYQQKPDQSPKRLIYDTSKLASGVPSRFSGSGSGTDFTLTINSLEAEDAATYYCQQWSSNPPTFGCGTKVEIKGGGGSGGGGS light: DIQMTQSPSSLSASVGDRVTITCRASQDIGSNLNWLQQKPGKAIKRLIYATFGLDSGVPSRFSGSRSGTDFTLTISSLQPEDFATYYCQQYASFPYTFGGGTKVEIK					0.0125	0.00239	0.381	69	63.9	20.4	0.206	0.0592	0.000513	1430	1700	213	328		
Bis-40E9-L3H1 (bispecific antibody, Fab-scFv-Fab (2+1), LALA; not shown: CH1; CL; CH2-CH3 with L234A, L235A; heavy chain constant region with L234A, L235A) heavy: EVQLVQSGAEVKKPGASVKVSCKASGYTFTSYVIHWVRQAPGQGLEWMGYFNPYNDGTKYNEEFKGRVTLTSDKSTSTAYMELRSLRSDDTAVYYCARGGVRRYFDVWGQGTTVTVSS heavy (part 1 of 2): EVQLVQSGAEVKKPGASVKVSCKASGYTFTSYVIHWVRQAPGQGLEWMGYFNPYNDGTKYNEEFKGRVTLTSDKSTSTAYMELRSLRSDDTAVYYCARGGVRRYFDVWGQGTTVTVSS heavy (part 2 of 2): GGGGSGGGGSEVQLVQSGAEVKKPGSSVKVSCKASGGTFSSYVIHWVRQAPGQCLEWMGYINPYNDVIKYNEKFKGRVTITADKSTSTAYMELSSLRSEDTAVYYCARDSYYSYDGFAYWGQGTLVTVSSGGGGSGGGGSGGGGSGGGGSEIVLTQSPDFQSVTPKEKVTITCSASSSVSYMHWYQQKPDQSPKRWIYDTSKLASGVPSRFSGSGSGTDYTLTINSLEAEDAATYYCQQWSSNPPTFGCGTKVEIKGGGGSGGGGS light: DIQMTQSPSSLSASVGDRVTITCRASQDIGSNLNWLQQKPGKAIKRLIYATFGLDSGVPSRFSGSRSGTDFTLTISSLQPEDFATYYCQQYASFPYTFGGGTKVEIK					0.0203	0.00244	0.292	74.9	68.3	13.6	1.71	0.0332	0.072	2760	1710	150	142		
